The text below walks through data of article doi:10.1101/2024.07.18.604210.

Experiment [1] deals with C-terminal domain of SepF from M. tuberculosis (tbSepF-CTD, residues 146-241) (M. tuberculosis). Briefly: AUC.
The target is the same in experiment [2]. Briefly: SAXS.
The target is the same in experiment [3]. Briefly: ITC.

Sequence of C-terminal domain of SepF from M. tuberculosis (tbSepF-CTD, residues 146-241) (M. tuberculosis) (A1KKJ0 123-218 limits assumed): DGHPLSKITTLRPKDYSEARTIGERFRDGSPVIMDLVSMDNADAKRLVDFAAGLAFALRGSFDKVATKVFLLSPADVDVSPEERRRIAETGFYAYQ

Regarding “C-terminal domain of SepF from M. tuberculosis (tbSepF-CTD, residues 146-241) (domain or fragment)”, the stoichiometry N in experiment [1] and in experiment [2] was 2 each time.

In experiment [3], “chemically synthesized 18-residue peptide from the C-terminal region of tbFtsZ” yielded a Kd of 19.7 µM and a stoichiometry N of 1.
